Experimental data: paper PMC4089486, “Structural and biochemical analyses of alanine racemase from the multidrug-resistant Clostridium difficile strain 630” (Acta Crystallographica Section D: Biological Crystallography, 2014)

Legend:
C[C@@H](N)C(=O)O = experiment: chiral HPLC of alanine enantiomers, initial rates; assay type: biochemical, Clostridioides difficile; details: D-Ala to L-Ala, 50 mM sodium borate pH 8.5, WT preparation partly cleaved at position 271
Source text: (§1) chiral HPLC of alanine enantiomers, initial rates on CdAlr (C. difficile alanine racemase; CdAlrWT)
C[C@H](N)C(=O)O = experiment: chiral HPLC of alanine enantiomers, initial rates; assay type: biochemical, Clostridioides difficile; details: L-Ala to D-Ala, 50 mM sodium borate pH 8.5, WT preparation partly cleaved at position 271
Source text: as §1

[1] = biological target: Clostridium difficile strain 630 alanine racemase, recombinant wild type (Clostridium difficile strain 630); experiment: SEC-MALS

| Substance | Km (C[C@@H](N)C(=O)O) [mM] | Vmax (C[C@@H](N)C(=O)O) [µmol/min/mg] | kcat (C[C@@H](N)C(=O)O) [s⁻¹] | Km (C[C@H](N)C(=O)O) [mM] | kcat (C[C@H](N)C(=O)O) [s⁻¹] | stoichiometry N [1] |
| --- | --- | --- | --- | --- | --- | --- |
| CdAlr (C. difficile alanine racemase; CdAlrWT) (Clostridioides difficile 630) | 7 | 26.7 | 19.2 | 17.6 | 59.3 |  |
| Clostridium difficile strain 630 alanine racemase, recombinant wild type (from UniProt A0AC59G415 1-385) (enzyme) |  |  |  |  |  | 2 |
